Measured values as given in patent publication US20090220527A1 (MEDLMMUNE, published 2009).
Residue numbers refer to the chain shown, from its start.

Key:
[1] = biological target: T1, human EphA2 (form used in the affinity measurements not stated) (human, UniProt P29317 24-534, limits assumed); assay: surface plasmon resonance (BIAcore 3000), purified scFv
T1 construct: The only EphA2 reagent it describes is human EphA2-Fc
Experimental: 2A4, 2E7 and 12E2 as well as parental EA2 scFv and humanized 4H5 scFv were induced for expression in E. coli in a 1 L culture volume. The supernatants containing soluble, secreted scFv fragments were spun to remove cellular debris then passed over an anti-FLAG column (Sigma) to purify and isolate the variant proteins. The purified affinity optimized variants were analyzed by surface plasmon resonance detection using a BIAcore 3000 instrument (Pharmacia Biosensor, Uppsala, Sweden). […] (see FIG. 5).

[2] = biological target: T1, human EphA2 (form used in the affinity …); assay: method not stated; humanized clone from framework shuffling, reference chimeric Fab EA2

T1 sequence (P29317 24-534 limits assumed): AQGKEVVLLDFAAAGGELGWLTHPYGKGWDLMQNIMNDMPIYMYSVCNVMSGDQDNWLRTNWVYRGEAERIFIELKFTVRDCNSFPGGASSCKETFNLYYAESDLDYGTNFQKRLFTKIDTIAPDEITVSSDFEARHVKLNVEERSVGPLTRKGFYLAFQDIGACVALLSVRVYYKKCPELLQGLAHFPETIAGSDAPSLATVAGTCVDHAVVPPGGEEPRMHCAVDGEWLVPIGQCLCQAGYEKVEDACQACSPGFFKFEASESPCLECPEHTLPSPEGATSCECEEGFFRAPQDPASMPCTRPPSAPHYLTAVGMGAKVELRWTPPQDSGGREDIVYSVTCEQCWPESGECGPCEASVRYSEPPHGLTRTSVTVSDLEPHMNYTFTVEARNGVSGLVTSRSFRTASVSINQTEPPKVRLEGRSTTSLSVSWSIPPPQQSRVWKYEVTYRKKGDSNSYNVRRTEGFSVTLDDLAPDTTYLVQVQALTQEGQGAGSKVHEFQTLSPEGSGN

B1: 2A4 scFv (affinity optimized combinatorial variant of humanized 4H5) (scFv)
scFv: QVQLLESGGGLVQPGGSLRLSCAASGFTFSSYTMSWVRQAPGQALEWMGTISSRGTYTYYPDSVKGRFTISRDNAKNSLYLQMNSLRAEDTAVYYCAREAIFTHWGRGTLVTVSSGGGGSGGGGSGGGGSDIQLTQSPSSLSASVGDRVTITCKASQDINNYHSWYQQKPGQAPRLLIYRANRLVDGVPDRFSGSGYGTDFTLTINNIESEDAAYYFCLKYNVFPYTFGQGTKVEIK
Kd [1]: 5.6 nM
kon [1]: 652000 M⁻¹ s⁻¹

B2: 12E2 scFv (affinity optimized combinatorial variant of humanized 4H5) (scFv)
scFv: B1 scFv with H104Y, H163L, V185F, N222D, V223R
kon [1]: 518000 M⁻¹ s⁻¹

B3: 2E7 scFv (affinity optimized combinatorial variant of humanized 4H5) (scFv)
scFv: B1 scFv with H163G, V223R
kon [1]: 563000 M⁻¹ s⁻¹

B4: humanized clone 4H5 (from framework shuffling of murine mAb EA2; format in this comparison not stated) (antibody, V domains shown)
VH: QVQLLESGGGLVQPGGSLRLSCAASGFTFSSYTMSWVRQAPGQALEWMGTISSGGTYTYYPDSVKGRFTISRDNAKNSLYLQMNSLRAEDTAVYYCAREAIFTYWGRGTLVTVSS
VL: DIQLTQSPSSLSASVGDRVTITCKASQDINNYLSWYQQKPGQAPRLLIYRANRLVDGVPDRFSGSGYGTDFTLTINNIESEDAAYYFCLKYDVFPYTFGQGTKVEIK
notes: Compared with chimeric Fab EA2; also called humanized Mab 4H5
fold increase of affinity against chimeric Fab EA2 [2]: ~20 fold
